Assay results from publication PMC3084791, “The Structure of Helicobacter pylori HP0310 Reveals an Atypical Peptidoglycan Deacetylase” (PLoS ONE, 2011).

Molecular target: the molecule itself
Experiment: crystal structure; crystals at 20°C by vapor diffusion, 0.2 M ammonium sulfate, 0.1 M trisodium citrate pH 5.6, 15% PEG 4000; space group C2221; one tetramer in the asymmetric unit; 2.57 Å

B1: Peptidoglycan deacetylase (HP0310, HpPgdA) from Helicobacter pylori (enzyme)
chain: MAKEILVAYGVDIDAVAGWLGSYGGEDSPDDISRGLFAGEVGIPRLLKLFKKYHLPATWFVPGHSIETFPEQMKMIVDAGHEVGAHGYSHENPIAMSTKQEEDVLLKSVELIKDLTGKAPTGYVAPWWEFSNITNELLLKHGFKYDHSLMHNDFTPYYVRVGDSWSKIDYSLEAKDWMKPLIRGVETNLVEIPANWYLDDLPPMMFIKKSPNSFGFVSPRDIGQMWIDQFDWVYREMDYAVFSMTIHPDVSARPQVLLMHEKIIEHINKHEGVRWVTFNEIADDFLKRNPRKK
notes: HP0310 (HpPgdA), peptidoglycan deacetylase, amplified from genomic H. pylori G27 with primers from the ATG to the stop codon; soluble protein of 293 amino acids; residues 2 to 291 visible in the crystal; Cloned in pET151 in frame with an N-terminal His-tag flanked by a TEV site; the entry of strain 26695 would be another; also called His tagged-Hp0310; H. pylori peptidoglycan deacetylase; source: …
**Q.** With B1 as the protein, how does the “stoichiometry N” value read?
**A.** The value was 4.
